The results in this text go back to PMC9537018.

Data set [1] in a line: immunoblot of protein level, rescue by MG132 or CQ. The conditions noted are these: glycan lost; control: untreated WT-SND1-EGFP.
The nature of data set [2]: confocal colocalisation with ER marker CNX. The note with it: glycan lost; control: WT-SND1-EGFP.
A short description of data set [3]: confocal colocalisation with Golgi marker GM130. The note with it: glycan lost; control: WT-SND1-EGFP.

B1: Staphylococcal nuclease domain-containing protein 1 (SND1): tunicamycin (protein)
parent chain: MASSAQSGGSSGGPAVPTVQRGIIKMVLSGCAIIVRGQPRGGPPPERQINLSNIRAGNLARRAAATQPDAKDTPDEPWAFPAREFLRKKLIGKEVCFTIENKTPQGREYGMIYLGKDTNGENIAESLVAEGLATRREGMRANNPEQNRLSECEEQAKAAKKGMWSEGNGSHTIRDLKYTIENPRHFVDSHHQKPVNAIIEHVRDGSVVRALLLPDYYLVTVMLSGIKCPTFRREADGSETPEPFAAEAKFFTESRLLQRDVQIILESCHNQNILGTILHPNGNITELLLKEGFARCVDWSIAVYTRGAEKLRAAERFAKERRLRIWRDYVAPTANLDQKDKQFVAKVMQVLNADAIVVKLNSGDYKTIHLSSIRPPRLEGENTQDKNKKLRPLYDIPYMFEAREFLRKKLIGKKVNVTVDYIRPASPATETVPAFSERTCATVTIGGINIAEALVSKGLATVIRYRQDDDQRSSHYDELLAAEARAIKNGKGLHSKKEVPIHRVADISGDTQKAKQFLPFLQRAGRSEAVVEYVFSGSRLKLYLPKETCLITFLLAGIECPRGARNLPGLVQEGEPFSEEATLFTKELVLQREVEVEVESMDKAGNFIGWLHIDGANLSVLLVEHALSKVHFTAERSSYYKSLLSAEEAAKQKKEKVWAHYEEQPVEEVMPVLEEKERSASYKPVFVTEITDDLHFYVQDVETGTQLEKLMENMRNDIASHPPVEGSYAPRRGEFCIAKFVDGEWYRARVEKVESPAKIHVFYIDYGNREVLPSTRLGTLSPAFSTRVLPAQATEYAFAFIQVPQDDDARTDAVDSVVRDIQNTQCLLNVEHLSAGCPHVTLQFADSKGDVGLGLVKEGLVMVEVRKEKQFQKVITEYLNAQESAKSARLNLWRYGDFRADDADEFGYSR
With B1, the degradation_or_half_life entry in data set [1] is “decreases”.

B2: Staphylococcal nuclease domain-containing protein 1 (SND1): N416Q (protein)
parent chain: MASSAQSGGSSGGPAVPTVQRGIIKMVLSGCAIIVRGQPRGGPPPERQINLSNIRAGNLARRAAATQPDAKDTPDEPWAFPAREFLRKKLIGKEVCFTIENKTPQGREYGMIYLGKDTNGENIAESLVAEGLATRREGMRANNPEQNRLSECEEQAKAAKKGMWSEGNGSHTIRDLKYTIENPRHFVDSHHQKPVNAIIEHVRDGSVVRALLLPDYYLVTVMLSGIKCPTFRREADGSETPEPFAAEAKFFTESRLLQRDVQIILESCHNQNILGTILHPNGNITELLLKEGFARCVDWSIAVYTRGAEKLRAAERFAKERRLRIWRDYVAPTANLDQKDKQFVAKVMQVLNADAIVVKLNSGDYKTIHLSSIRPPRLEGENTQDKNKKLRPLYDIPYMFEAREFLRKKLIGKKVNVTVDYIRPASPATETVPAFSERTCATVTIGGINIAEALVSKGLATVIRYRQDDDQRSSHYDELLAAEARAIKNGKGLHSKKEVPIHRVADISGDTQKAKQFLPFLQRAGRSEAVVEYVFSGSRLKLYLPKETCLITFLLAGIECPRGARNLPGLVQEGEPFSEEATLFTKELVLQREVEVEVESMDKAGNFIGWLHIDGANLSVLLVEHALSKVHFTAERSSYYKSLLSAEEAAKQKKEKVWAHYEEQPVEEVMPVLEEKERSASYKPVFVTEITDDLHFYVQDVETGTQLEKLMENMRNDIASHPPVEGSYAPRRGEFCIAKFVDGEWYRARVEKVESPAKIHVFYIDYGNREVLPSTRLGTLSPAFSTRVLPAQATEYAFAFIQVPQDDDARTDAVDSVVRDIQNTQCLLNVEHLSAGCPHVTLQFADSKGDVGLGLVKEGLVMVEVRKEKQFQKVITEYLNAQESAKSARLNLWRYGDFRADDADEFGYSR
For the protein B2, the localisation_or_trafficking entry in data set [2] and in data set [3] was “no change” each time.

B3: Staphylococcal nuclease domain-containing protein 1 (SND1): N168Q (protein)
parent chain: MASSAQSGGSSGGPAVPTVQRGIIKMVLSGCAIIVRGQPRGGPPPERQINLSNIRAGNLARRAAATQPDAKDTPDEPWAFPAREFLRKKLIGKEVCFTIENKTPQGREYGMIYLGKDTNGENIAESLVAEGLATRREGMRANNPEQNRLSECEEQAKAAKKGMWSEGNGSHTIRDLKYTIENPRHFVDSHHQKPVNAIIEHVRDGSVVRALLLPDYYLVTVMLSGIKCPTFRREADGSETPEPFAAEAKFFTESRLLQRDVQIILESCHNQNILGTILHPNGNITELLLKEGFARCVDWSIAVYTRGAEKLRAAERFAKERRLRIWRDYVAPTANLDQKDKQFVAKVMQVLNADAIVVKLNSGDYKTIHLSSIRPPRLEGENTQDKNKKLRPLYDIPYMFEAREFLRKKLIGKKVNVTVDYIRPASPATETVPAFSERTCATVTIGGINIAEALVSKGLATVIRYRQDDDQRSSHYDELLAAEARAIKNGKGLHSKKEVPIHRVADISGDTQKAKQFLPFLQRAGRSEAVVEYVFSGSRLKLYLPKETCLITFLLAGIECPRGARNLPGLVQEGEPFSEEATLFTKELVLQREVEVEVESMDKAGNFIGWLHIDGANLSVLLVEHALSKVHFTAERSSYYKSLLSAEEAAKQKKEKVWAHYEEQPVEEVMPVLEEKERSASYKPVFVTEITDDLHFYVQDVETGTQLEKLMENMRNDIASHPPVEGSYAPRRGEFCIAKFVDGEWYRARVEKVESPAKIHVFYIDYGNREVLPSTRLGTLSPAFSTRVLPAQATEYAFAFIQVPQDDDARTDAVDSVVRDIQNTQCLLNVEHLSAGCPHVTLQFADSKGDVGLGLVKEGLVMVEVRKEKQFQKVITEYLNAQESAKSARLNLWRYGDFRADDADEFGYSR
Consider B3, for which the localisation_or_trafficking entry in data set [2] and in data set [3] was “no change” throughout.

B4: Staphylococcal nuclease domain-containing protein 1 (SND1): N283Q (protein)
parent chain: MASSAQSGGSSGGPAVPTVQRGIIKMVLSGCAIIVRGQPRGGPPPERQINLSNIRAGNLARRAAATQPDAKDTPDEPWAFPAREFLRKKLIGKEVCFTIENKTPQGREYGMIYLGKDTNGENIAESLVAEGLATRREGMRANNPEQNRLSECEEQAKAAKKGMWSEGNGSHTIRDLKYTIENPRHFVDSHHQKPVNAIIEHVRDGSVVRALLLPDYYLVTVMLSGIKCPTFRREADGSETPEPFAAEAKFFTESRLLQRDVQIILESCHNQNILGTILHPNGNITELLLKEGFARCVDWSIAVYTRGAEKLRAAERFAKERRLRIWRDYVAPTANLDQKDKQFVAKVMQVLNADAIVVKLNSGDYKTIHLSSIRPPRLEGENTQDKNKKLRPLYDIPYMFEAREFLRKKLIGKKVNVTVDYIRPASPATETVPAFSERTCATVTIGGINIAEALVSKGLATVIRYRQDDDQRSSHYDELLAAEARAIKNGKGLHSKKEVPIHRVADISGDTQKAKQFLPFLQRAGRSEAVVEYVFSGSRLKLYLPKETCLITFLLAGIECPRGARNLPGLVQEGEPFSEEATLFTKELVLQREVEVEVESMDKAGNFIGWLHIDGANLSVLLVEHALSKVHFTAERSSYYKSLLSAEEAAKQKKEKVWAHYEEQPVEEVMPVLEEKERSASYKPVFVTEITDDLHFYVQDVETGTQLEKLMENMRNDIASHPPVEGSYAPRRGEFCIAKFVDGEWYRARVEKVESPAKIHVFYIDYGNREVLPSTRLGTLSPAFSTRVLPAQATEYAFAFIQVPQDDDARTDAVDSVVRDIQNTQCLLNVEHLSAGCPHVTLQFADSKGDVGLGLVKEGLVMVEVRKEKQFQKVITEYLNAQESAKSARLNLWRYGDFRADDADEFGYSR
With B4, the localisation_or_trafficking entry in data set [2] and in data set [3] was “no change” throughout.

B5: Staphylococcal nuclease domain-containing protein 1 (SND1): N50Q (protein)
parent chain: MASSAQSGGSSGGPAVPTVQRGIIKMVLSGCAIIVRGQPRGGPPPERQINLSNIRAGNLARRAAATQPDAKDTPDEPWAFPAREFLRKKLIGKEVCFTIENKTPQGREYGMIYLGKDTNGENIAESLVAEGLATRREGMRANNPEQNRLSECEEQAKAAKKGMWSEGNGSHTIRDLKYTIENPRHFVDSHHQKPVNAIIEHVRDGSVVRALLLPDYYLVTVMLSGIKCPTFRREADGSETPEPFAAEAKFFTESRLLQRDVQIILESCHNQNILGTILHPNGNITELLLKEGFARCVDWSIAVYTRGAEKLRAAERFAKERRLRIWRDYVAPTANLDQKDKQFVAKVMQVLNADAIVVKLNSGDYKTIHLSSIRPPRLEGENTQDKNKKLRPLYDIPYMFEAREFLRKKLIGKKVNVTVDYIRPASPATETVPAFSERTCATVTIGGINIAEALVSKGLATVIRYRQDDDQRSSHYDELLAAEARAIKNGKGLHSKKEVPIHRVADISGDTQKAKQFLPFLQRAGRSEAVVEYVFSGSRLKLYLPKETCLITFLLAGIECPRGARNLPGLVQEGEPFSEEATLFTKELVLQREVEVEVESMDKAGNFIGWLHIDGANLSVLLVEHALSKVHFTAERSSYYKSLLSAEEAAKQKKEKVWAHYEEQPVEEVMPVLEEKERSASYKPVFVTEITDDLHFYVQDVETGTQLEKLMENMRNDIASHPPVEGSYAPRRGEFCIAKFVDGEWYRARVEKVESPAKIHVFYIDYGNREVLPSTRLGTLSPAFSTRVLPAQATEYAFAFIQVPQDDDARTDAVDSVVRDIQNTQCLLNVEHLSAGCPHVTLQFADSKGDVGLGLVKEGLVMVEVRKEKQFQKVITEYLNAQESAKSARLNLWRYGDFRADDADEFGYSR
With B5, the localisation_or_trafficking entry in data set [2] is given as “increases”; in data set [3] it was “decreases”. Moreover, the degradation_or_half_life entry in data set [1] was “decreases”.
